Measurements reported in PMC8677947.

Assays:
[1] = molecular target: GCN4 leucine zipper (Saccharomyces cerevisiae) (UniProt P03069); details: cited from earlier work
[2] = molecular target: GCN4^WT (leucine zipper dimerization element of GCN4), C-terminal 6x His-tagged (yeast); assay: native gel or EMSA; native (nondenaturing) PAGE beside SDS-PAGE of GCN4^WT and GCN4^3mut

Chain of GCN4 leucine zipper (P03069 250-277): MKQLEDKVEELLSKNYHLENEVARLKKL
Chain of GCN4^WT (leucine zipper dimerization element of GCN4), C-terminal 6x His-tagged (domain or fragment) (P03069 whole entry, the tested form may be a part): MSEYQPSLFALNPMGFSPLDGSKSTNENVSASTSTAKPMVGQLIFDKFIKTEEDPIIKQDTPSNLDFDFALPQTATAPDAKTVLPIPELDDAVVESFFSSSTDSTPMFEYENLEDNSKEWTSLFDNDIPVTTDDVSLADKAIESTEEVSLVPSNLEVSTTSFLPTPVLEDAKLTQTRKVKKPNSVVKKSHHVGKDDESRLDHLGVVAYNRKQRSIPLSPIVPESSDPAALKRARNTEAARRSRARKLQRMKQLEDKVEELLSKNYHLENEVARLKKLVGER

## GCN4 leucine zipper (from UniProt P03069)
[1]
  Kd: 0.18 nM

## GCN4^WT (leucine zipper dimerization element of GCN4), C-terminal 6x His-tagged (domain or fragment)
[2]
  stoichiometry N: 2
